Assay results taken from US20260042834A1 (HBM ALPHA THERAPEUTICS, published 2026).
Where two headings read alike, the source gives them in different places.

Assays:
[1] = biological target: T1, CRH (CT-Biotin) (human and mouse, biotin on the added C-terminal K (-K-Biotin)); assay: ELISA, C-terminally biotinylated CRH on streptavidin-coated plate
T1 construct: also called Peptide 4 (CRH-Biotin); C-terminally biotinylated corticotropin-releasing hormone
T1 peptide: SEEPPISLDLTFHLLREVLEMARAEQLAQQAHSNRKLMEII
Procedure: (§1) Streptavidin (Thermo, Cat: 21125) was diluted in PBS to a concentration of 2 μg/ml. 100 μl of diluted streptavidin was added per well to ELISA microplates, and the plates were incubated overnight at 4° C. […] 100 μL of 3,3′,5,5′-tetramethylbenzidine (TMB) substrate (Biopanda, Cat: TMB-S-003) was added, and the plates were incubated at room temperature for 15 minutes. 100 μL of ELISA stopping solution (Solarbio, Cat #: C1058) was added to terminate the reaction, and the optical density at 450 nm (OD450 nm) was determined by an ELISA plate reader (Molecular Devices, Spectra max 384 plus).

[2] = biological target: T2, corticotropin-releasing hormone (CRH) peptide (human and mouse, not fully specified); assay: cell-based or functional assay
T2 peptide: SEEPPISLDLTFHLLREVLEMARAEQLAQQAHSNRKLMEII

[3] = biological target: T3, CRH (NT-Biotin) (human and mouse, not fully specified; biotin at the N-terminus); assay: ELISA on streptavidin-captured CRH (NT biotin), OD450
T3 construct: also called Biotin-CRH; N-terminally biotinylated corticotropin-releasing hormone
T3 peptide: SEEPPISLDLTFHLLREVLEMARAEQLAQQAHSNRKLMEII
Procedure: as §1

[4] = biological target: T1, CRH (CT-Biotin); assay: ELISA on streptavidin-captured CRH (CT biotin), OD450
Procedure: as §1

[5] = biological target: T1, CRH (CT-Biotin); assay: as above
Procedure: as §1

[6] = biological target: T3, CRH (NT-Biotin); assay: ELISA, N-terminally biotinylated CRH on streptavidin-coated plate
Procedure: as §1

[7] = biological target: T3, CRH (NT-Biotin); assay: ELISA on streptavidin-captured CRH (NT biotin), OD450
Procedure: as §1

[8] = biological target: T4, biotinylated CRH (human and mouse, not fully specified; biotinylated, position not stated); assay: Octet BLI, biotinylated CRH on SA sensor
T4 construct: also called Biotin-CRH; biotin-labeled CRH
T4 peptide: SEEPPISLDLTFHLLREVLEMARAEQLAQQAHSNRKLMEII

[9] = biological target: T5, hUCN1 (NT Biotin) (human, UniProt P55089 83-122, biotin at the N-terminus); assay: ELISA on streptavidin-captured hUCN1 (NT biotin), OD450
T5 construct: also called human UCN1 (NT biotin)
T5 peptide (looked up): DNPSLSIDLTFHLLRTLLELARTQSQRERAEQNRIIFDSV
Procedure: as §1

[10] = biological target: T6, N-Terminal CRH (human and mouse, C-terminal K-Biotin); assay: ELISA, biotin peptide on streptavidin plate
T6 construct: also called N-Ter-CRH (CT-Bion)
T6 peptide: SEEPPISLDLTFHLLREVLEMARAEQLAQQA
How it was run: (§2)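 Plates were coated overnight at 4° C with streptavidin at 2 μg/ml in PBS to capture the biotinylated peptide. After binding steps, TMB substrate was developed for 15 minutes at room temperature, the reaction was stopped, and OD450 nm was read.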

[11] = biological target: T7, CRH (CT Biotin) (human and mouse, C-terminal K-Biotin); assay: ELISA on streptavidin-captured CRH (CT biotin), OD450
T7 construct: also called Peptide 4 (CRH-Biotin)
T7 peptide: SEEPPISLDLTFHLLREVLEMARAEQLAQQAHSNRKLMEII
Procedure: as §1

[12] = biological target: T8, human UCN3 peptide (human, UniProt Q969E3 120-157, not fully specified; biotin at N- or C-terminus in the ELISA); assay: ELISA on streptavidin-captured hUCN3 (NT biotin) and hUCN3 (CT biotin), mAb at 100 nM and 10 nM, OD450
T8 construct: also called hUCN3; hUCN3 (NT Biotin)
T8 peptide (looked up): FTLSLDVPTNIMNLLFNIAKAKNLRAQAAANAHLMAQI
Procedure: (§3) Streptavidin (Thermo, Cat: 21125) was diluted in PBS with a concentration of 2 μg/mL. 100 μL of diluted streptavidin was added per well to ELISA microplates, and the plates were incubated overnight at 4° C. Plates were blocked with ELISA blocking solution (containing 2% w/v BSA, 0.05% (v/v) Tween-20, pH 7.4 PBS buffer) at 37° C. for 1 hour, and then incubated with either 1 μg/mL hUCN1 (NT Biotin), hUCN1 (CT Biotin), hUCN2 (NT Biotin), hUCN2 (CT Biotin), hUCN3 (NT Biotin), or hUCN3 (CT Biotin) for 1 hour at 37° C. […] 100 μl of TMB Substrate (Biopanda, Cat: TMB-S-003) was added, and the plates were incubated at room temperature for 15 minutes. 100 μL of ELISA stopping solution (Solarbio, Cat #: C1058) was then added to terminate the reaction, and the OD450 nm was determined by an ELISA plate reader (Molecular Devices, Spectra max 384 plus).

[13] = biological target: T9, CRH (NT Biotin) (human and mouse, not fully specified; biotin at the N-terminus); assay: ELISA on streptavidin-captured CRH (NT biotin), OD450
T9 peptide: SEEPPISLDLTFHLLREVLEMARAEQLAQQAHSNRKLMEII
Procedure: as §1

[14] = biological target: T10, human UCN2 peptide (human, UniProt Q96RP3 72-109, limits assumed, not fully specified; biotin at N- or C-terminus in the ELISA); assay: ELISA on streptavidin-captured hUCN2 (NT biotin) and hUCN2 (CT biotin), mAb at 100 nM and 10 nM, OD450
T10 construct: also called hUCN2; hUCN2 (NT Biotin)
T10 peptide (looked up): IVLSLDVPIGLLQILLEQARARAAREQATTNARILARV
Procedure: as §3

[15] = biological target: T5, hUCN1 (NT Biotin); assay: ELISA on streptavidin-captured hUCN1 (NT biotin), mAb at 100 nM and 10 nM; axis labelled RLU, scale 0-4
Procedure: as §3

[16] = biological target: T11, hUCN1 (CT Biotin) (human, UniProt P55089 83-122, biotin at the C-terminus); assay: ELISA on streptavidin-captured hUCN1 (CT biotin), mAb at 100 nM and 10 nM; axis labelled RLU, scale 0-4
T11 construct: also called human UCN1 (CT biotin)
T11 peptide (looked up): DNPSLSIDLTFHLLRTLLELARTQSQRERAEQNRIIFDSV
Procedure: as §3, with “100 μL of ELISA stopping solution (Solarbio, Cat #: C1058) was then added to terminate the reaction, and the OD450 nm was determined by an ELISA plate reader (Molecular Devices, Spectra max 384 plus).” left out

[17] = biological target: T9, CRH (NT Biotin); assay: ELISA, biotin peptide on streptavidin plate
How it was run: as §2

[18] = biological target: T7, CRH (CT Biotin); assay: ELISA, biotin peptide on streptavidin plate
How it was run: as §2

[19] = biological target: T12, corticotropin-releasing hormone (CRH) peptide (human and mouse, not fully specified); assay: cell-based or functional assay
T12 peptide: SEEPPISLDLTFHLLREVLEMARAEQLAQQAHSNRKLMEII

[20] = biological target: T8, human UCN3 peptide; assay: ELISA on streptavidin-captured hUCN3 (NT biotin) and hUCN3 (CT biotin), mAb at 100 nM and 10 nM; axis labelled RLU, scale 0-4
Procedure: as §3

[21] = biological target: T10, human UCN2 peptide; assay: ELISA on streptavidin-captured hUCN2 (NT biotin) and hUCN2 (CT biotin), mAb at 100 nM and 10 nM; axis labelled RLU, scale 0-4
How it was run: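 Streptavidin-coated plates (2 μg/mL, overnight 4° C.), blocked with 2% BSA/0.05% Tween-20 PBS pH 7.4, then loaded with 1 μg/mL N- or C-terminally biotinylated hUCN peptide, 1 hour at 37° C. Detection by TMB substrate, 15 minutes at room temperature, stopped, OD450 nm read.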

B1: PR004290 (antibody, human IgG1, kappa, V domains shown)
VH: EVQLVESGGVLVQPGGSLRLSCAASGFTFSSYWMTWVRQAPGKGLEWVANIKQDGSEKYYVDSVKGRFTISRDNAKNSLFLQMNSLRAEDTAVYYCARTLIFDYWGQGTLVTVSS
VL: DIVMTQSPLSLPVTPGEPASISCRSSQSLLHSTGYNSLEWYLQKPGQSPQLLIYLGSNRASGVPDRFSGSGSGTDFTLKISRVEAEDVGIYYCMQTLQTPITFGQGTRLEIKR
notes: Expressed recombinantly with human IgG1 wildtype Fc; also called Hybridoma Clone 28b3; Series 1 mAb
EC50 [1]: 0.032 nM
hCRHR1 Reporter IC50 [2]: 3.69 nM
EC50 (read off the curve) [3]: ~0.05 nM
EC50 (read off the curve) [4]: ~0.01 nM
EC50 (read off the curve) [5]: ~0.03 nM
EC50 [6]: 0.029 nM
EC50 (read off the curve) [7]: ~0.01 nM

B2: PR302309-18 (antibody, human IgG1, kappa, V domains shown)
VH: QVQLVQSGAEVKKPGASVKVSCKASGYTFTNYGMNWVRQAPGQRLEWMGWINTYTGEPIYTDDFKGRVTITRDTSASTAYMELSSLRSEDTAVYYCARSTMITTGGVFAYWGQGTLVTVSS
VL: DVVMTQSPLSLPVTLGQPASISCRSSQTIVHSDGNTYLEWYQQRPGQSPRLLIYKVSNRFSGVPDRFSGSGSGTDFTLKISRVEAEDLGVYYCFQGSHVPWTFGGGTKVEIKR
notes: Humanized variant of PR302309
Kd [8]: < 1 pM
koff [8]: < 1e-07 s⁻¹
kon [8]: 126000 M⁻¹ s⁻¹
EC50 (read off the curve) [9]: ~0.1 nM
EC50 [10]: 0.028 nM
EC50 (read off the curve) [11]: ~0.03 nM
binding result [12]: no binding (tested: 100 nM)
EC50 (read off the curve) [13]: ~0.03 nM
binding result [14]: no binding (tested: 100 nM)

B3: PR302334-26 (antibody, human IgG1, kappa, V domains shown)
VH: EVQLVESGGGLVQPGGSLRLSCAASGFTFSTYAMSWVRQAPGKGLEWVASIRSGGTTYYPDSVKGRFTISRDNSKNSLYLQMNSLRAEDTAVYYCTRGIDWGQGTTVTVSS
VL: DIVMTQSPDSLAVSLGERATINCKASQSVNNDVAWYQQKPGQPPRLLIYYASNRYTGVPDRFSGSGSGTDFTLTISSLQAEDLAVYFCQQDYSSWTFGGGTKVEIKR
notes: Humanized variant of PR302334
binding result [15]: no binding (tested: 100 nM)
binding result [16]: no binding (tested: 100 nM)
Kd [8]: < 1 pM
koff [8]: < 1e-07 s⁻¹
kon [8]: 329000 M⁻¹ s⁻¹
EC50 [17]: 0.029 nM
EC50 [18]: 0.028 nM
EC50 [10]: 0.029 nM
CHO-CRE-hCRHR1 0.5 nM CRH IC50 [19]: 1.1 nM
binding result [20]: no binding (tested: 100 nM)
binding result [21]: no binding (tested: 100 nM)
